The values below come from PMC11077064, “The origin recognition complex requires chromatin tethering by a hypervariable intrinsically disordered region that is functionally conserved from sponge to man”.

A word on the Kd: it is the concentration at which binding is half-saturated.

Data set [1] addresses T1, DmORC holocomplex (Orc1-6) (Drosophila melanogaster) (UniProt O16810+Q24168+Q24169+Q9Y1B2). As to the kind of experiment: fluorescence polarization. The note with it: EMSA: 50 mM HEPES pH 7.5, 150 mM K-glutamate, 10% glycerol, 1 mM BME, 2 nM DNA, RT 20 min, 1% agarose; FP: same with 150 or 300 mM K-glutamate, 5 mM MgOAc ….
The target in data set [2] is DmORC delta1IDR holocomplex Orc1:del248-549 (Drosophila melanogaster) (UniProt O16810+Q24168+Q24169+Q9Y1B2). In words: fluorescence polarization. The note with it: EMSA: 50 mM HEPES pH 7.5, 150 mM K-glutamate, 10% glycerol, 1 mM BME, 2 nM DNA, RT 20 min, 1% agarose, FP: same with 150 or 300 mM K-glutamate.
Chain of DmORC delta1IDR holocomplex Orc1:del248-549 (Drosophila melanogaster) (O16810 whole entry, stated change not applied, chain 1 of 4): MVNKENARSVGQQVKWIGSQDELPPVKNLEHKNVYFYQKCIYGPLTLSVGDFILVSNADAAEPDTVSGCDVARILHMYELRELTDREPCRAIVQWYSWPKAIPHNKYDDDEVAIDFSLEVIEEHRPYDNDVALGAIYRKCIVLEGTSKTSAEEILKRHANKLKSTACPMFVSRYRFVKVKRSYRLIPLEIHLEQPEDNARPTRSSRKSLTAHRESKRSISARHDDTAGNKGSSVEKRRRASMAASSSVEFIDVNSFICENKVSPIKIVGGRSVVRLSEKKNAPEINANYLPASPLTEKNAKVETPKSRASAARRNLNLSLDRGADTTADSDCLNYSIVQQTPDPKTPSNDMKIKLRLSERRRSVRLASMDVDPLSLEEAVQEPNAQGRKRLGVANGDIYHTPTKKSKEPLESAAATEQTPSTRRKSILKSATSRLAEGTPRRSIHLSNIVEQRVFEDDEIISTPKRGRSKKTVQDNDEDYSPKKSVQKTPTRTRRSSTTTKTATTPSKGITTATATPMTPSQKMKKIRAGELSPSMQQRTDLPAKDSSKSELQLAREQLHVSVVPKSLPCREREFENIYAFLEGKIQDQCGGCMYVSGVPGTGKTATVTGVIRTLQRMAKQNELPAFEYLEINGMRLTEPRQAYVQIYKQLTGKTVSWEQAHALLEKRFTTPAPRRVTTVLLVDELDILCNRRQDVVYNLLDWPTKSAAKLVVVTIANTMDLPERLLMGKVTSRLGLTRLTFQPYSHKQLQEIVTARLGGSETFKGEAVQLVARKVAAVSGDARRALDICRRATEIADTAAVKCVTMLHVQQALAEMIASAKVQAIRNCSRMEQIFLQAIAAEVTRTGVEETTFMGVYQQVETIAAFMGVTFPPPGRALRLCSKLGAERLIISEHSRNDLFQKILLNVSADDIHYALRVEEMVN
Chain of DmORC delta1IDR holocomplex Orc1:del248-549 (Drosophila melanogaster) (Q24168 whole entry, stated change not applied, chain 2 of 4): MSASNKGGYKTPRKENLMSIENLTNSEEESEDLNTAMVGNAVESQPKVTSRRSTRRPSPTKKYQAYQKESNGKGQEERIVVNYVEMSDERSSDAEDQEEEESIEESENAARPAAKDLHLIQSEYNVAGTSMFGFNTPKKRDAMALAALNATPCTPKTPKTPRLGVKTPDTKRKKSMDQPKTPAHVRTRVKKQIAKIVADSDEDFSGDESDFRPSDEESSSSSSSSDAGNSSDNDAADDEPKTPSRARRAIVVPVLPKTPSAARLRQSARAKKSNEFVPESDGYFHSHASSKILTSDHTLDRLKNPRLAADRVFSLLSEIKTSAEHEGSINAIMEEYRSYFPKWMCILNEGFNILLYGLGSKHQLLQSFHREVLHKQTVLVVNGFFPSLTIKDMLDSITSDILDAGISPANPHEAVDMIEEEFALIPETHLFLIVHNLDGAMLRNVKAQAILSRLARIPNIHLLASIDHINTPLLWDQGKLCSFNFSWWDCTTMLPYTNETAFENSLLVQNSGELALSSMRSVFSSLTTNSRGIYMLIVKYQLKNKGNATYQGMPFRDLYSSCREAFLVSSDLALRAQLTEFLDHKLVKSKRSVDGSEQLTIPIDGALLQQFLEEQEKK
Chain of DmORC delta1IDR holocomplex Orc1:del248-549 (Drosophila melanogaster) (Q24169 whole entry, stated change not applied, chain 3 of 4): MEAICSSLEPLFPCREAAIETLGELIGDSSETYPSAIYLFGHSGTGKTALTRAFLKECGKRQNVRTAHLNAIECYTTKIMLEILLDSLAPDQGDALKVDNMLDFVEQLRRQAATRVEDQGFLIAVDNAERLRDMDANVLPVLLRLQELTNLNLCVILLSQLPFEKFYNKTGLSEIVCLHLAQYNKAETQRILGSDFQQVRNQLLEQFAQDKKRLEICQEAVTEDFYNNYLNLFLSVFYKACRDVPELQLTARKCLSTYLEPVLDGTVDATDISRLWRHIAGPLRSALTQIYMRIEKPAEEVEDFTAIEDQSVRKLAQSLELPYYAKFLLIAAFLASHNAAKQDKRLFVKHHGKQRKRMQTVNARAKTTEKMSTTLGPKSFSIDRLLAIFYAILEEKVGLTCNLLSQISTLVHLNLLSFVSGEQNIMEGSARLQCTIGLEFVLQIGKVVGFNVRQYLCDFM
Chain of DmORC delta1IDR holocomplex Orc1:del248-549 (Drosophila melanogaster) (Q9Y1B2 whole entry, stated change not applied, chain 4 of 4): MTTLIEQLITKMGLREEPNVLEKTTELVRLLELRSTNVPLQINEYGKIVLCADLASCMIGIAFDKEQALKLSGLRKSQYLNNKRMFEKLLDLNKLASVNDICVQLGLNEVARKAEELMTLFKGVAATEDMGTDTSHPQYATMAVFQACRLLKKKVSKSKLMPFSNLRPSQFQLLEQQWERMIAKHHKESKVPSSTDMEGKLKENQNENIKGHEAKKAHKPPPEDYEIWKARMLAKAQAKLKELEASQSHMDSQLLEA
In data set [3] the test system is AqOrc1 IDR (Amphimedon queenslandica). In words: fluorescence polarization. To be noted: about 100 nM or less; EMSA: 50 mM HEPES pH 7.5, 150 mM K-glutamate, 10% glycerol, 1 mM BME, 2 nM DNA, RT 20 min, 1% agarose; FP: same with 150 or 300 mM K-glutamate, 5 mM MgOAc …. For orientation: Fluorescence polarisation rises when a labelled molecule tumbles more slowly, as on binding a larger partner.

Data set [4] deals with T1, DmORC holocomplex (Orc1-6) (Drosophila melanogaster). As to the kind of experiment: fluorescence polarization. To be noted: EMSA: 50 mM HEPES pH 7.5, 150 mM K-glutamate, 10% glycerol, 1 mM BME, 2 nM DNA, RT 20 min, 1% agarose; FP: same with 150 or 300 mM K-glutamate, 5 mM MgOAc …. This is another data set of the same source.
Data set [5] deals with AmOrc1 IDR (Acropora millepora). In words: fluorescence polarization. The note with it: about 100 nM or less; EMSA: 50 mM HEPES pH 7.5, 150 mM K-glutamate, 10% glycerol, 1 mM BME, 2 nM DNA, RT 20 min, 1% agarose; FP: same with 150 or 300 mM K-glutamate, 5 mM MgOAc ….
The test system of data set [6] is MyOrc1 IDR (Mizuhopecten yessoensis). As to the kind of experiment: fluorescence polarization. To be noted: about 100 nM or less; EMSA: 50 mM HEPES pH 7.5, 150 mM K-glutamate, 10% glycerol, 1 mM BME, 2 nM DNA, RT 20 min, 1% agarose; FP: same with 150 or 300 mM K-glutamate, 5 mM MgOAc ….
The test system of data set [7] is DgOrc1 IDR (Dimorphilus gyrociliatus). As to the kind of experiment: fluorescence polarization. To be noted: about 100 nM or less; EMSA: 50 mM HEPES pH 7.5, 150 mM K-glutamate, 10% glycerol, 1 mM BME, 2 nM DNA, RT 20 min, 1% agarose; FP: same with 150 or 300 mM K-glutamate, 5 mM MgOAc ….
Data set [8] addresses T2, DmOrc1 IDR (Drosophila melanogaster, UniProt O16810 187-549).
T2 sequence: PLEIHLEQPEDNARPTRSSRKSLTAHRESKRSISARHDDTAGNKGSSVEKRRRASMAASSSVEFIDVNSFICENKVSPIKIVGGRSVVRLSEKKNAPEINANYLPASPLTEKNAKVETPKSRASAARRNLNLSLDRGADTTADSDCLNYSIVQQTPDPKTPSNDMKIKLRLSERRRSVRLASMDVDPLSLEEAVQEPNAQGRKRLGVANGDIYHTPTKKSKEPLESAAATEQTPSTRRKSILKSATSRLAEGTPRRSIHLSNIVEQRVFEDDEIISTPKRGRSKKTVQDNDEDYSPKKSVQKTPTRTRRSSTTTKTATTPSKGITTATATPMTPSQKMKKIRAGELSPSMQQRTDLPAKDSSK
In words: EMSA; no ATP; text says FITC, legend Cy5; EMSA: 50 mM HEPES pH 7.5, 150 mM K-glutamate, 10% glycerol, 1 mM BME, 2 nM DNA, RT 20 min, 1% agarose; FP: same with 150 or 300 mM K-glutamate, 5 mM MgOAc, 0 or 1 mM ATP, RT 30 min. To be noted: protein: recombinant; tags: His6-MBP removed by TEV; blunt (60-bp duplex). For orientation: A gel shift assay detects complexes by their altered migration in electrophoresis.

For data set [9], the target named is T3, DmOrc1 IDR delta P (Drosophila melanogaster, UniProt O16810 187-549, S263A;S293A;T304A;T341A;T346A;T401A;T419A;T439A;T463A;S481A;T489A;T505A;T516A;T5 …).
T3 sequence: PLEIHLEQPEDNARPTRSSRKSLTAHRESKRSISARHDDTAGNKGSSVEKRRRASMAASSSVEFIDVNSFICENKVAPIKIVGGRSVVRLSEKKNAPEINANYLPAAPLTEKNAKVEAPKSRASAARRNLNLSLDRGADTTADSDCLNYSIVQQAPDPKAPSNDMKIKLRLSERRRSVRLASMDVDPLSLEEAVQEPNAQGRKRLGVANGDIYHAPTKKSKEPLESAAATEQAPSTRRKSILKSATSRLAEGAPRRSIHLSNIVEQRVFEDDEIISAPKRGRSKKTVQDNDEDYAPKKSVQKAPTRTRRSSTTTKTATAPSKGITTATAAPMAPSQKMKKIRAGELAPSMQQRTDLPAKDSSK
In words: EMSA; 600 nM; EMSA: 50 mM HEPES pH 7.5, 150 mM K-glutamate, 10% glycerol, 1 mM BME, 2 nM DNA, RT 20 min, 1% agarose; FP: same with 150 or 300 mM K-glutamate, 5 mM MgOAc, 0 or 1 mM ATP, RT 30 min. To be noted: protein: recombinant; blunt (60-bp duplex).

Data set [10] addresses T4, DmOrc1 IDR delta BP (Drosophila melanogaster, UniProt O16810 187-549, del520-533).
T4 sequence: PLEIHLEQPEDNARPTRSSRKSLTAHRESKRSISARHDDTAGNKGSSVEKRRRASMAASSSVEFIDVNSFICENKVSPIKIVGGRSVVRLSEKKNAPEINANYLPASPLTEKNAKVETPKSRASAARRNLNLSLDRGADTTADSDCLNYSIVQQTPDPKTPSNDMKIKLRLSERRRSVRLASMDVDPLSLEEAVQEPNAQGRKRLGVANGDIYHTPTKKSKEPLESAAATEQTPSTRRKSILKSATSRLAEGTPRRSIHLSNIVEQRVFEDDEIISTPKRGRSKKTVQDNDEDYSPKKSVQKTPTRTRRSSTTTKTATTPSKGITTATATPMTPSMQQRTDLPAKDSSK
As to the kind of experiment: EMSA; text says FITC, legend Cy5; EMSA: 50 mM HEPES pH 7.5, 150 mM K-glutamate, 10% glycerol, 1 mM BME, 2 nM DNA, RT 20 min, 1% agarose; FP: same with 150 or 300 mM K-glutamate, 5 mM MgOAc, 0 or 1 mM ATP, RT 30 min. To be noted: protein: recombinant; tags: His6-MBP removed by TEV; blunt (60-bp duplex).

The target in data set [11] is T2, DmOrc1 IDR. As to the kind of experiment: EMSA; unphosphorylated, compared with pOrc1IDR; label not stated; EMSA: 50 mM HEPES pH 7.5, 150 mM K-glutamate, 10% glycerol, 1 mM BME, 2 nM DNA, RT 20 min, 1% agarose; FP: same with 150 or 300 mM K-glutamate, 5 mM MgOAc, 0 or 1 mM ATP, RT 30 min. To be noted: protein: recombinant; tags: His6-MBP removed by TEV; blunt (60-bp duplex).

Data set [12] deals with T5, DmOrc1 IDR delta3 (Drosophila melanogaster, UniProt O16810 187-549, del307-366).
T5 sequence: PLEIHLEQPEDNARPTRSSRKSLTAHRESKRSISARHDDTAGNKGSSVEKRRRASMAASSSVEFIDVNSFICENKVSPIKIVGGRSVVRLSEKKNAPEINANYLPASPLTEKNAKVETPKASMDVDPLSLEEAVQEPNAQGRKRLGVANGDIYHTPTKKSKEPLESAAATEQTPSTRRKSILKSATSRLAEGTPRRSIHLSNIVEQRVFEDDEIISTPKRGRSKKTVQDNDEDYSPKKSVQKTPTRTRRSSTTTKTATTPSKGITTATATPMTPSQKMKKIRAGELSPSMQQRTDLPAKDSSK
In words: EMSA; EMSA: 50 mM HEPES pH 7.5, 150 mM K-glutamate, 10% glycerol, 1 mM BME, 2 nM DNA, RT 20 min, 1% agarose; FP: same with 150 or 300 mM K-glutamate, 5 mM MgOAc, 0 or 1 mM ATP, RT 30 min. The note with it: protein: recombinant; tags: His6-MBP removed by TEV; blunt (60-bp duplex).

Data set [13] deals with T6, DmOrc1 IDR delta4 (Drosophila melanogaster, UniProt O16810 187-549, del367-426).
T6 sequence: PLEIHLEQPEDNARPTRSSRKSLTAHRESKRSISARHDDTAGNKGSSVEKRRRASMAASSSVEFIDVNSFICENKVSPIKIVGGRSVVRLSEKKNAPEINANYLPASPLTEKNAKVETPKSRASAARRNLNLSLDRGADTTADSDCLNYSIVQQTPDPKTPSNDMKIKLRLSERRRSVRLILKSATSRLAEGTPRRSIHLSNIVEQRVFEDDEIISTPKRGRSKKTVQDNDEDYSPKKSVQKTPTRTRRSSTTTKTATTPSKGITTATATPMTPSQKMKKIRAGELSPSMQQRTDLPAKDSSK
Described as above. To be noted: protein: recombinant; tags: His6-MBP removed by TEV; blunt (60-bp duplex).

Data set [14] addresses T7, DmOrc1 IDR delta2 (Drosophila melanogaster, UniProt O16810 187-549, del247-306).
T7 sequence: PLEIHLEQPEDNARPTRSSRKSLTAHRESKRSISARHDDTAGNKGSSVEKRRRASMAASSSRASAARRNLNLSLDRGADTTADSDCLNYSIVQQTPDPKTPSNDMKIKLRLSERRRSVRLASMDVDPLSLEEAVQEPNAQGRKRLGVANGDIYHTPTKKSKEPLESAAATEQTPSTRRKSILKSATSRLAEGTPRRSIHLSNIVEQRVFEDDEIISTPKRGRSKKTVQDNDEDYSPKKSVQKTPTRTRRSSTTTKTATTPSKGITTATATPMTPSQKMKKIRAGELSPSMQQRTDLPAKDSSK
Described as above. To be noted: protein: recombinant; tags: His6-MBP removed by TEV; blunt (60-bp duplex).

In data set [15] the target is T8, DmOrc1 IDR delta1 (Drosophila melanogaster, UniProt O16810 247-549, del187-246).
T8 sequence: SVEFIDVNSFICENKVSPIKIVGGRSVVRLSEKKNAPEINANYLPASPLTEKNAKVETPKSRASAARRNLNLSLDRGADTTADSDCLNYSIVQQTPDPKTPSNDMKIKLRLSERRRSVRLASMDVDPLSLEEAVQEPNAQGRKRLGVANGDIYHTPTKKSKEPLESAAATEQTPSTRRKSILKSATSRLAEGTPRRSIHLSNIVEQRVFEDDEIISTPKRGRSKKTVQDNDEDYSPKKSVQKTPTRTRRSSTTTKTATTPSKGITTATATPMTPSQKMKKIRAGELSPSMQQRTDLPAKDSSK
Described as above. To be noted: protein: recombinant; tags: His6-MBP removed by TEV; blunt (60-bp duplex).

The target in data set [16] is T9, DmOrc1 IDR delta5 (Drosophila melanogaster, UniProt O16810 187-549, del427-486).
T9 sequence: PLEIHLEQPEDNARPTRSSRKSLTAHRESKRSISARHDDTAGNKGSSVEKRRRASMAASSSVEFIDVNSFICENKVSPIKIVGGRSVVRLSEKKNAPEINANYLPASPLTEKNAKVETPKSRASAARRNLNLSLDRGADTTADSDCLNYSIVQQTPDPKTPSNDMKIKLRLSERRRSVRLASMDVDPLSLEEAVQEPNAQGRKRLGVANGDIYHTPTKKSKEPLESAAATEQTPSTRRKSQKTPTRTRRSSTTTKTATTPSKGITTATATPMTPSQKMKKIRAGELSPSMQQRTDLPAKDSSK
Described as above. To be noted: protein: recombinant; tags: His6-MBP removed by TEV; blunt (60-bp duplex).

The target of data set [17] is T10, DmOrc1 IDR delta6 (Drosophila melanogaster, UniProt O16810 187-486, del487-549).
T10 sequence: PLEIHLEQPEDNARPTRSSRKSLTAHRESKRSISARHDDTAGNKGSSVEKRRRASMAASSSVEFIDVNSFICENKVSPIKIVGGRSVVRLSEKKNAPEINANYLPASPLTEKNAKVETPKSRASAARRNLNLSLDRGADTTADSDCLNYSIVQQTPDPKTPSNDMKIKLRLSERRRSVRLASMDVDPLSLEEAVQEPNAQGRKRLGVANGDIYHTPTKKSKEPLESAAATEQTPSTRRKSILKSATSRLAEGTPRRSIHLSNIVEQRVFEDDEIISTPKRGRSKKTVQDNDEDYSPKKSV
Described as above. To be noted: protein: recombinant; tags: His6-MBP removed by TEV; blunt (60-bp duplex).

Values joined by “and” are separate entries in the source; they are usually repeats but may differ in a detail not shown here. Identical values can stand only once.

T1 sequence (O16810 whole entry, chain 1 of 4): as the sequence (O16810 whole entry, stated change not applied, chain 1 of 4) above
T1 sequence (Q24168 whole entry, chain 2 of 4): as the sequence (Q24168 whole entry, stated change not applied, chain 2 of 4) above
T1 sequence (Q24169 whole entry, chain 3 of 4): as the sequence (Q24169 whole entry, stated change not applied, chain 3 of 4) above
T1 sequence (Q9Y1B2 whole entry, chain 4 of 4): as the sequence (Q9Y1B2 whole entry, stated change not applied, chain 4 of 4) above

For the molecule “GAAGCTAGACTTAGGTGTCATATTGAACCTACTATGCCGAACTAGTTACGAGCTATAACC (double strand) [FITC-dsDNA 60 bp]”, the equilibrium dissociation constant (Kd) in data set [1] was 6 nM and 34 nM; in data set [2] (5 mM MgOAc …), 19 nM; in data set [2] (no ATP, 150 mM KGlut, 5 mM MgOAc, severely impaired), over 1000 nM; in [3], 100 nM; in data set [4], 7 nM; in [5] it was 100 nM. Besides, the dissociation constant Kd in data set [6] and in data set [7] was 100 nM in each case.

B1: Cy5-dsDNA 60 bp (dsDNA)
DNA 1: GAAGCTAGACTTAGGTGTCATATTGAACCTACTATGCCGAACTAGTTACGAGCTATAACC
DNA 2: GGTTATAGCTCGTAACTAGTTCGGCATAGTAGGTTCAATATGACACCTAAGTCTAGCTTC
For B1, the Kd in data set [8] is 15 ± 4 nM; in data set [10], 8 ± 2 nM; in data set [11] it was 21 nM; in data set [12] it was under 100 nM; in [13], 62 ± 26 nM; in data set [14], under 100 nM. Moreover, the Kd in [15], in data set [16] and in data set [17] was under 100 nM throughout. The binding result in data set [9] was “binds”.
